The data set has as its target T1, HspR (Rv0353) (Mycobacterium tuberculosis, UniProt O06302 O06302:1-126).
T1 sequence: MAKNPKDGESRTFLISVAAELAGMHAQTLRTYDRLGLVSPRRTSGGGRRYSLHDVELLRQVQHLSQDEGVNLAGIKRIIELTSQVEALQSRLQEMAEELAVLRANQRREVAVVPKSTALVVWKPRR
Put plainly: EMSA. The settings on record: tags: His-tag (pQE30, expressed in E. coli SG13009, renatured from urea); label: 32P; annealed 40-mers with short 5' overhangs. In general terms: Mobility shift assays separate free from complexed probe on a gel.

B1: HAIR2 oligonucleotide DNAKIR-F/DNAKIR-R (dsDNA)
DNA 1: GCTCAGTAAGTTGAGTGCATCAGGCTCAGCTCTGAATTGA
DNA 2: GTCAATTCAGAGCTGAGCCTGATGCACTCAACTTACTGAG
With B1, the binding result is reported as “binds”.

Source of the values: US20040219159, “Methods and compositions for therapeutic intervention in infectious disease” (published 2004).
